These results are taken from patent publication US20060105398A1, “Methods of identifying compounds that modulate igg mediated mast cell activation” (Rigel Pharmaceuticals, Inc, priority 2002, published 2006).

The data set relates to FcγRI activation of cultured human mast cells (CHMC). Put plainly: Priming of mast cells, tryptase activity in supernatant after Fcγ activation with IgG and anti-IgG. It is filed as cell-based. The settings on record: IL-4 absent or present in priming solution; IgE primed mast cells; human IgG3 and rabbit anti-human IgG (FIG. 1A, 1B). On the procedure: Priming of mast cells is carried out by seeding the cells on Day 0 at 3.5×10^5 cells/mL in culture media plus SCF (200 ng/mL), IL-6 (200 ng/mL), IL-4 ([…]), IgE (200 ng/mL), and IgG3 (200 ng/mL).
Activation or stimulation of cells is done on Day 3 by centrifuging the cells down and resupending them at 1.5×10^3 cells/mL in modified tyrodes (MT: 137 mM NaCl, 2.7 mM KCI, 1.8 mM CaCl2, 5.6 mM glucose, 20 mM Hepes (pH 7.4), 0.1% Bovine Serum Albumin (Sigma A4503)), with or without rabbit anti-human IgG (200 ng/mL final conc.), for 30 minutes at 37° C. (see Demo, S. D., Cytometry. 36(4):340-348 (1999)).
Degranulation is measured by centrifuging down the sample, and harvesting the supernatant and measuring tryptase activity. The tryptase assays are performed under standard conditions (25 uL supernatant added to 100 uL of 10 uM tryptase substrate [20 mM stock solution of Z-Ala-Lys-Arg-AMC2TFA (Enzyme systems Products, Catalog No. AMC-246) diluted 1:2000 in tryptase assay buffer [[…] (pH 7.5), 10% w/v Glycerol, […], 0.01% NaN3] for 30 min at 37° C. The reactions are read in plate reader (Wallac, Victor 2, 1420 Multilabel Counter).

Turning to “IL-4: cytokine added to the priming solution (20 ng/mL)”, the “effect on activation (tryptase activity in the supernatant)” value was “did not appear to substantially affect activation”.
